These results are taken from paper PMC3479198 (Nucleic Acids Research, 2012).

This series deals with the molecule itself. Briefly: electron microscopy.

B1: Helicobacter pylori DnaA protein (natural protein, H. pylori, UniProt O26057 1-457, looked up)
chain: MDTNNNIEKEILALVKQNPKVSLIEYENYFSQLKYNPNASKSDIAFFYAPNQVLCTTITAKYGALLKEILSQNKVGMHLAHSVDVRIEVAPKIQINAQSNINYKAIKTSVKDSYTFENFVVGSCNNTVYEIAKKVAQSDTPPYNPVLFYGGTGLGKTHILNAIGNHALEKHKKVVLVTSEDFLTDFLKHLDNKTMDSFKAKYRHCDFFLLDDAQFLQGKPKLEEEFFHTFNELHANSKQIVLISDRSPKNIAGLEDRLKSRFEWGITAKVMPPDLETKLSIVKQKCQLNQITLPEEVMEYIAQHISDNIRQMEGAIIKISVNANLMNASIDLNLAKTVLEDLQKDHAEGSSLENILLAVAQSLNLKSSEIKVSSRQKNVALARKLVVYFARLYTPNPTLSLAQFLDLKDHSSISKMYSGVKKMLEEEKSPFVLSLREEIKNRLNELNDKKTAFNSSE
As for B1, the binding result is reported as “binds”.
